PMC4005663 (Nucleic Acids Research, 2014)

B1: GST–MLV IN CTD(290–408) (domain or fragment)
chain: PSLQAHLQALYLVQHEVWRPLAAAYQEQLDRPVVPHPYRVGDTVWVRRHQTKNLEPRWKGPYTVLLTTPTALKVDGIAAWIHAAHVKAADPGGGPSSRLTWRVQRSQNPLKIRLTREAP
notes: not shown: GST, N-terminal, kept
B2: GST–MLV IN NTD–CCD(1–289) (domain or fragment)
chain: IENSSPYTSEHFHYTVTDIKDLTKLGAIYDKTKKYWVYQGKPVMPDQFTFELLDFLHQLTHLSFSKMKALLERSHSPYYMLNRDRTLKNITETCKACAQVNASKSAVKQGTRVRGHRPGTHWEIDFTEIKPGLYGYKYLLVFIDTFSGWIEAFPTKKETAKVVTKKLLEEIFPRFGMPQVLGTDNGPAFVSKVSQTVADLLGIDWKLHCAYRPQSSGQVERMNRTIKETLTKLTLATGSRDWVLLLPLALYRARNTPGPHGLTPYEILYGAPPPLVNFPDPDMTRVTNS

Target: T1, 6xHis–Brd4(1–720) (human, UniProt O60885 1-720)
T1 construct: not shown: 6xHis, N-terminal, kept
Assay: pull-down
Conditions: both partners purified

| Binder | Kd |
| --- | --- |
| B1 | 61.2 ± 4.05 nM |
| B2 | > 2000 nM |
